# Reference: patent US20150337019
# Legend:
# [1] = test system: native hexamer form of MRJP1
# [2] = test system: MGO-modified MRJP (MRJP mixture treated with MGO)
# [3] = test system: monomeric form of royalactin
substance,measurement,setting,value
Cathepsin B from bovine spleen,Cathepsin B digestion (data not shown),[1],the native hexamer form of MRJP1 and the monomeric form of royalactin were readily degraded by this enzyme
same,"Cathepsin B digestion, native PAGE",[2],Cathepsin B is unable to hydrolyze the protein at pH 7.0 but was able to hydrolyze the lower molecular weight species produced at pH 4.0
same,Cathepsin B digestion (data not shown),[3],the native hexamer form of MRJP1 and the monomeric form of royalactin were readily degraded by this enzyme
